Data on two molecules can be found in patent publication US20250332297A1, “DLL3-SPECIFIC BINDING CONSTRUCTS AND THEIR USE IN RADIOTHERAPY” (MOLECULAR PARTNERS AG, priority 2024, published 2025).

Where two headings read alike, the source gives them in different places.

Data set [1] is described as follows: Pharmacokinetic analysis in WT BALBc mice (serum, ELISA). It counts as in vivo, mouse. Particulars: natural lead-labelled DOTAM conjugate 1 mg/kg i.v., Tables 16, 17. (ELISA stands for enzyme-linked immunosorbent assay.)
For data set [2], the target named is T1, NCI-H82 cells expressing human DLL3 (Homo sapiens, UniProt Q9NYJ7).
T1 construct: a human lung carcinoma cell line which endogenously expresses DLL3 on the surface; host or cells: NCI-H82
T1 sequence (Q9NYJ7 27-618): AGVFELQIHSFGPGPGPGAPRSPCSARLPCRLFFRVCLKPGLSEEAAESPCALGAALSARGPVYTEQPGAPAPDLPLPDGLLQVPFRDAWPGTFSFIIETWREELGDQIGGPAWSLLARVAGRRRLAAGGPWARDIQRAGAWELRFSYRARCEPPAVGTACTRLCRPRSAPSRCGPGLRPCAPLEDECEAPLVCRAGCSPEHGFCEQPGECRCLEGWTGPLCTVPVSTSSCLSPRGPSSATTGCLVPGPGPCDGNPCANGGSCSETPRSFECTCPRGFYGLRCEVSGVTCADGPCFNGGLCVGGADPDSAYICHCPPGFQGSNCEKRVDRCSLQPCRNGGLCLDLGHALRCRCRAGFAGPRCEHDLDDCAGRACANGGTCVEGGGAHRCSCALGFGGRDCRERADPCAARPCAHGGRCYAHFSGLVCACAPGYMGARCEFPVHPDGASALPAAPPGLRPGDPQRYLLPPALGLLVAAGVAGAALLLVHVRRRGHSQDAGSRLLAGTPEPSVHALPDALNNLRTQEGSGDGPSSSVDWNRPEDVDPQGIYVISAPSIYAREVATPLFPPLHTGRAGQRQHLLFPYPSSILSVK
The data set is described as follows: Cell binding titration on NCI-H82 cells. It counts as cell-based. How it is done:
Furthermore, cell binding titration assays were also performed with selected two domain (2D) designed ankyrin repeat proteins to determine binding to human cells expressing DLL3 endogenously, in absence and presence of human serum albumin. For this purpose, NCI-H82 cells were used, a human lung carcinoma cell line which endogenously expresses DLL3 on the surface. […] A non-binding DARPin comprising SEQ ID NO: 22 was used as a negative control.
In brief, 1×10^5 cells/well were resuspended in 100 μl DARPin dilution (500 nM, 1:5 serial diluted in PBS, 2% FBS) and incubated for 1 h at 4° C. This step was performed in absence and presence of 10 μM Human Serum Albumine (CSL Behring #150570). Cells were washed twice with PBS, 2% FBS and resuspended in 100 μl anti-DARPin antibody (rabbit anti-DARPin 1.4.8) and LIVE/DEAD cell stain (1:1000, Biolegend #423106). After incubation and washing, cells were incubated with detection antibody for 30 minutes (Goat […] IgG (H+L), AF647, Thermo Fisher #21445). Cells were fixed (Paraformaldehyde Solution, TCL119, LucernaChem) and acquired at Attune N×T (Thermo Life Technologies). Raw fcs files were exported and analyzed using FlowJo software. MFI values of live AF647-positive cells were exported from FlowJo and plotted using GraphPad Prism software.

[3] abbreviates: absence of human serum albumin, read-out: Cell binding EC50, w/o HSA.
[4] abbreviates: presence of 10 μM human serum albumin, read-out: Cell binding EC50, with HSA.

B1: MAM283: Two domain (2D) ankyrin repeat protein: serum albumin-specific domain (SEQ ID NO: 7), PT linker, DLL3-specific domain (SEQ ID NO: 3) (protein)
chain: DLGKKLLEAARAGQDDEVRELLKAGADVNAKDYFSHTPLHLAARNGHLKIVEVLLKAGADVNAKDFAGKTPLHLAADAGHLEIVEVLLKAGADVNAQDIFGKTPADIAADAGHEDIAEVLQKAAGSPTPTPTTPTPTPTTPTPTPTGSDLGKKLLAAAADGQDDEVRELLQAGADVNAKDLFGYTPLHLAAWRGHLEIVEVLLEAGADVNAKDAAGETPLHLAAWFGHLEIVEVLLEAGADVNAQDVQGKTPADLAAKEGHEDIAEVLQQAA
modifications: Ankyrin repeat protein (MAM283)
Broadly, the Cmax is the highest concentration seen after dosing. For orientation: Tmax means the time from dosing to the highest level. B1: in data set [1], the AUCINF_pred is 14.4943 µM·h, the “AUC_% Back_Ext_pred” value was 0%, the “AUC_% Extrap_pred” value was 2% and the AUClast was 14.2436 µM·h. Besides, in data set [1], the CI_pred was determined as 2.3 mL/h/kg, the Cmax worked out at 1.44 µM, the HL_Lambda_z came out at 12.7 h and the Tmax was found to be 1.98 min. The Vss_pred in data set [1] is 0.035 L/kg. Also, the EC50 in data set [2] (setting [3]) stood at 5.4 nM. In data set [2] (setting [4]), the EC50 was found to be 8.1 nM.

B2: MAM282: Two domain (2D) ankyrin repeat protein: serum albumin-specific domain (SEQ ID NO: 7), PT linker, DLL3-specific domain (SEQ ID NO: 2) (protein)
chain: DLGKKLLEAARAGQDDEVRELLKAGADVNAKDYFSHTPLHLAARNGHLKIVEVLLKAGADVNAKDFAGKTPLHLAADAGHLEIVEVLLKAGADVNAQDIFGKTPADIAADAGHEDIAEVLQKAAGSPTPTPTTPTPTPTTPTPTPTGSDLGKKLLAAAREGQDDEVRELLKAGADVNAKDIWGQTPLHIAAWFGHLEIVEVLLKAGADVNAKDQTGHTPLHLAAKFGHLEIVEVLLKAGADVNAQDLLGRTPADLAAEEGHEDIAEVLQKAA
modifications: Ankyrin repeat protein (MAM282)
Take B2: in data set [1], the AUCINF_pred is 8.435 µM·h, the “AUC_% Back_Ext_pred” value was 0%, the “AUC_% Extrap_pred” value worked out at 17% and the AUClast came to 7.0389 µM·h. Further, in data set [1], the CI_pred was determined as 4 mL/h/kg, the peak level (Cmax) was 0.461 µM, the HL_Lambda_z turned out to be 28.5 h and the Tmax is 1.98 min. Besides, the Vss_pred in data set [1] is on record as 0.153 L/kg. Also, the EC50 in data set [2] (setting [3]) was found to be 2.6 nM. Also, the EC50 in data set [2] (setting [4]) was 2.6 nM.
